From article PMC8058060, “The transcriptional activator of the bfp operon in EPEC (PerA) interacts with the RNA polymerase alpha subunit” (Scientific Reports, 2021)

Target: T1, His6-RpoA (alpha subunit of the RNA polymerase) (UniProt P0A7Z4 1-329)
T1 construct: RNA polymerase alpha subunit RpoA; also called His-tagged RpoA; α-subunit of the RNAP; source: E. coli BL21 (DE3) containing pET28-RpoA, purified as described previously
Experiment: pull-down; 50 µg each of purified MBP or MBP-PerA and His6-RpoA in interaction buffer (2X: 100 mM NaH2PO4, 600 mM NaCl, 40 mM imidazol, 0.5% NP-40, 20% glycerol, pH 8.0), 30 min on ice, then 50 µl amylose resin 2 h at ~4 °C; Western blot with anti-MBP antibody or anti-His6-HRP probe
Conditions: both partners purified

T1 sequence (P0A7Z4 whole entry): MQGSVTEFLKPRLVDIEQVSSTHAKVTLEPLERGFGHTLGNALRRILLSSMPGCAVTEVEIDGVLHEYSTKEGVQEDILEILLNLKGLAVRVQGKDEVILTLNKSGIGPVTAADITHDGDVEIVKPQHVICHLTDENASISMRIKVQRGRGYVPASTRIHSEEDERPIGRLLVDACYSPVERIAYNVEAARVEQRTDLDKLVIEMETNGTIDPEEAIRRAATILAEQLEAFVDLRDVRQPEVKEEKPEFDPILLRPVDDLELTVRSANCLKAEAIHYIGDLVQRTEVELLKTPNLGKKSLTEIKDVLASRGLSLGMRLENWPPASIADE

B1: MBP-PerA fusion (natural protein)
chain: MLTSKKEMQSSENKQEENLALLLTNYISYQNIVIFTGGNQFKIRNKKEFTEYTIESNSLFFLAKNTHWDMEIVGIDNSNPYRKIIIDDALIKLLHSISSDDSCYVKKKIFTANLNEMQLNIVSNIITDIKYSGNNKKIFKILYLLSFFNDYNDIVNVILSASSKSIVDRVIKVIELDISKNWKLGDVSSSMFMSDSCLRKQLNKENLTFKKIMLDIKMKHASLFLRTTDKNIDEISCLVGFNSTSYFIKVFKEYYNTTPKKYNGVYSITQGTLP
notes: 274 residues; pMalC2xa derivative; also called BfpT; MBP-PerA chimera; source: expressed from pMALT2; over-expressed in EPEC E2348/69 ΔperA with 0.3 mM IPTG, in soluble lysate, for the co-purification
B1: binds.
